Source: the Human Domainome abundance scans (Beltran et al. 2025)
± gives the uncertainty stated by the source.

B1: RNA-binding E3 ubiquitin-protein ligase MEX3C, residues 325 to 391; numbered along this chain, Q5U5Q3 (parent)
chain: GQTTVQVRVPYRVVGLVVGPKGATIKRIQQQTHTYIVTPSRDKEPVFEVTGMPENVDRAREEIEMHI

Variants of: B1
Assay: abundance fitness (aPCA) (normalised: wild type 0, dead -1); higher = more abundant; growth selection in yeast, the domain comes from the species named
Details: Homo sapiens

Abundance fitness: each site, then its substitutions
I36: E -1.04 ± 0.22; N -0.21 ± 0.25; K -0.729 ± 0.3; S -0.435 ± 0.091; V -0.471 ± 0.11; A -0.555 ± 0.1; Q -0.801 ± 0.19; T -0.899 ± 0.21; G -0.586 ± 0.064; M -0.885 ± 0.24; P -0.736 ± 0.14
Q30: E -0.022 ± 0.099; G -0.609 ± 0.074; P -0.899 ± 0.21; C -0.805 ± 0.27; Y -0.664 ± 0.25; H -0.23 ± 0.33; R -0.126 ± 0.047; S -0.435 ± 0.081; F -0.773 ± 0.3; L -0.505 ± 0.093; D -0.053 ± 0.13; M -0.377 ± 0.094; A -0.01 ± 0.084; W -0.566 ± 0.076; T -0.183 ± 0.11; K -0.016 ± 0.095; V -0.536 ± 0.12
Y35: D -0.283 ± 0.41; S 0.15 ± 0.061; M -0.044 ± 0.1; W -0.135 ± 0.067; Q 0.206 ± 0.077; N 0.1 ± 0.074; G -0.511 ± 0.069; L -0.046 ± 0.056; V 0.129 ± 0.06; P -0.773 ± 0.17; H 0.164 ± 0.084; T 0.307 ± 0.068; I -0.069 ± 0.1; K 0.284 ± 0.092; E -0.041 ± 0.069; A -0.044 ± 0.064; F -0.02 ± 0.14; C -0.132 ± 0.098; R 0.2 ± 0.039
I28: G -0.883 ± 0.14; F -0.467 ± 0.39; A -0.695 ± 0.2; T -0.288 ± 0.18; Q -0.576 ± 0.17; L -0.559 ± 0.1; H -0.751 ± 0.27; W -1.2 ± 0.33; V -0.496 ± 0.11; R -0.419 ± 0.067; C -0.874 ± 0.48; M -0.639 ± 0.17; E -0.952 ± 0.28; P -0.376 ± 0.26
V37: Y -0.629 ± 0.16; S -0.027 ± 0.073; H -0.582 ± 0.29; N -0.426 ± 0.18; Q -0.094 ± 0.088; T 0.136 ± 0.098; D -0.377 ± 0.13; L -0.315 ± 0.082; R 0.138 ± 0.055; A -0.23 ± 0.059; P -0.724 ± 0.19; M -0.095 ± 0.092; C -0.205 ± 0.085; I -0.089 ± 0.065; K 0.216 ± 0.11; F -1 ± 0.22; E -0.422 ± 0.13; W -0.811 ± 0.18
H33: W -1.15 ± 0.25; Y -0.396 ± 0.11; N 0.171 ± 0.12; M -0.213 ± 0.11; G 0.081 ± 0.037
